Reference: patent US10683329B2, “Dual-site BACE1 inhibitors” (priority 2014, dated 2020)
*1 amine or outer side, *2 acyl side, *3 side chain or, on linkers, in order; H or OH if unused. Where a SMILES comes first, the peptide text is derived from it. Where no end group is shown, it is not given here. [ ]: non-standard residue; d: D form. The star is where a group is joined. Succinyl(4-O-cholesteryl) = CC(C)CCC[C@@H](C)[C@H]1CC[C@H]2[C@@H]3CC=C4C[C@@H](OC(=O)CCC(=O)*)CC[C@]4(C)[C@H]3CC[C@]12C; MetSta(3S,4S) = CSCC[C@H](N[*:1])[C@@H](O)CC(=O)[*:2]; Sta = CC(C)C[C@H](N)[C@@H](O)CC(=O)O; PEG4 = NCCOCCOCCOCCOCCC(=O)O; Ava = NCCCCC(=O)O; βAla = NCCC(=O)O

B1: Tyr-Pro-Lys-Phe-Ile-Pro-Leu-Gly-DLys-Gly-Glu-Val-Asn-Leu*Ala-Ala-Glu-DPro-Lys(Chol'ester')-NH2 x 3TFA (peptide)
peptide: YPKFIPLG[dK]GEVNLAAE[dP]K(Chol'ester')-NH2
modifications: also: Leu14*Ala15 Tang hydroxyethylene dipeptide isostere, trifluoroacetate salt (x 3TFA)

biological target: BACE1 enzyme (UniProt P56817 46-501, limits assumed); assay: cell-based or functional assay; conditions: not given
Sequence (P56817 46-501 limits assumed): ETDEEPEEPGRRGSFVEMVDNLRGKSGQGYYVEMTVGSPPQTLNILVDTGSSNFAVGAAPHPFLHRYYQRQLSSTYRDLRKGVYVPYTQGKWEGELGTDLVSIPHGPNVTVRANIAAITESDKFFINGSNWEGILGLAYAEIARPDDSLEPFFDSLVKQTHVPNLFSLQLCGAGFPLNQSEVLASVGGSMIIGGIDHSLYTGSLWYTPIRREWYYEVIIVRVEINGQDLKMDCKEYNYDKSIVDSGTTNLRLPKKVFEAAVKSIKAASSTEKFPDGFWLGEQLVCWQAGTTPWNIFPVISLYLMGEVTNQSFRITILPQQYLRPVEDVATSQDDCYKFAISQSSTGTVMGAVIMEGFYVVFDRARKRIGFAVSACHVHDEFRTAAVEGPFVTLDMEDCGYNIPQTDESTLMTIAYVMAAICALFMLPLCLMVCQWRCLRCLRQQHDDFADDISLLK

Question: YPYFIPLGGGGEVN[Sta]VAE[dP]K(Chol)-NH2 (also: TFA salt) [Tyr-Pro-Tyr-Phe-Ile-Pro-Leu-Gly-Gly-Gly-Gly-Glu-Val-Asn-Sta-Val-Ala-Glu-DPro-Lys(Chol)-NH2 x TFA] was tested. Which “IC50, cellular Aβ-lowering assay (Aβ40 in supernatant of HEK293 cells expressing human APP695)” value (shortened to “IC50, cellular Aβ-lowering assay”) did it give?
Answer: Its value is 42 pM.

Question: Which “IC50, cellular Aβ-lowering assay” value does the source give for YPKFIPLG[dK]GEVN[MetSta(3S,4S)]VAEPK(Chol'ester')-NH2 (also: x 3TFA salt) here?
Answer: Its value is 61 pM.

Question: YPYKIPLG[dK]GEVN[Sta]VAE[dP]K(Chol'ester')-NH2 (also: x 3TFA salt) was tested. Which “IC50, cellular Aβ-lowering assay” value did it give?
Answer: Its value is 2300 pM.

Question: How did the “IC50, cellular Aβ-lowering assay” value turn out when YPYFI[dK]LG[dK]GEVN[Sta]VAE[dP]K(Chol'ester')-NH2 (also: x 3TFA salt) was run?
Answer: Its value is 450 pM.

Question: Which “IC50, cellular Aβ-lowering assay” value does the source give for YPYFIPL[βAla]EVN[Sta]VAE[dP]K(Chol)-NH2 (also: TFA salt) [Tyr-Pro-Tyr-Phe-Ile-Pro-Leu-NH(CH2)2CO-Glu-Val-Asn-Sta-Val-Ala-Glu-DPro-Lys(Chol)-NH2 x TFA] here?
Answer: Its value is 2800 pM.

Question: YPYFIPLGGGGGEVN[Sta]VAE[dP]K(Chol)-NH2 (also: TFA salt) [Tyr-Pro-Tyr-Phe-Ile-Pro-Leu-Gly-Gly-Gly-Gly-Gly-Glu-Val-Asn-Sta-Val-Ala-Glu-DPro-Lys(Chol)-NH2 x TFA] was tested. Which “IC50, cellular Aβ-lowering assay” value did it give?
Answer: Its value is 44 pM.

Question: [dK]PYFIPLG[dK]GEVN[Sta]VAE[dP]K(Chol'ester')-NH2 (also: x 3TFA salt) was tested. Which “IC50, cellular Aβ-lowering assay” value did it give?
Answer: Its value is 13 pM.

Question: With YPYFIPLG[dA]GEVN[Sta]VAE[dP]K(Chol'ester')-NH2 (also: x TFA salt) [Tyr-Pro-Tyr-Phe-Ile-Pro-Leu-Gly-DAla-Gly-Glu-Val-Asn-Sta-Val-Ala-Glu-DPro-Lys(Chol'ester')-NH2 x TFA] as the molecule, how does the “IC50, cellular Aβ-lowering assay” value read?
Answer: Its value is 20 pM.

Question: For YPYF[dK]PLG[dK]GEVN[Sta]VAE[dP]K(Chol'ester')-NH2 (also: x 3TFA salt), which “IC50, cellular Aβ-lowering assay” value is on record?
Answer: Its value is 7600 pM.

Question: How did the “IC50, cellular Aβ-lowering assay” value turn out when YPYFIPL[Ava]EVN[Sta]VAE[dP]K(Chol)-NH2 (also: TFA salt) [Tyr-Pro-Tyr-Phe-Ile-Pro-Leu-NH(CH2)4CO-Glu-Val-Asn-Sta-Val-Ala-Glu-DPro-Lys(Chol)-NH2 x TFA] was run?
Answer: The value was 840 pM.

Question: How did the “IC50, cellular Aβ-lowering assay” value turn out when YPYFIPKG[dK]GEVN[Sta]VAE[dP]K(Chol'ester')-NH2 (also: 3TFA salt) was run?
Answer: Its value is 12 pM.

Question: Which “IC50, cellular Aβ-lowering assay” value does the source give for YPYFIPLSGGEVN[Sta]VAE[dP]K(Chol'ester')-NH2 (also: TFA salt) [Tyr-Pro-Tyr-Phe-Ile-Pro-Leu-Ser-Gly-Gly-Glu-Val-Asn-Sta-Val-Ala-Glu-DPro-Lys(Chol'ester')-NH2 x TFA] here?
Answer: The value was 52 pM.

Question: With YP[dK]FIPLG[dK]GEVN[Sta]VAE[dP]K(Chol'ester')-NH2 (also: x 3TFA salt) as the molecule, how does the “IC50, cellular Aβ-lowering assay” value read?
Answer: The value was 780 pM.

Question: Which “IC50, cellular Aβ-lowering assay” value does the source give for YPYFIPLGGGGEVN[Sta]DAE[dP]K(Chol)-NH2 (also: x TFA salt) [Tyr-Pro-Tyr-Phe-Ile-Pro-Leu-Gly-Gly-Gly-Gly-Glu-Val-Asn-Sta-Asp-Ala-Glu-DPro-Lys(Chol)-NH2 x TFA] here?
Answer: The value was 3300 pM.

Question: For YPYFIP[dK]G[dK]GEVN[Sta]VAE[dP]K(Chol'ester')-NH2 (also: x 3TFA salt), which “IC50, cellular Aβ-lowering assay” value is on record?
Answer: The value was 5.9 pM.

Question: Which “IC50, cellular Aβ-lowering assay” value does the source give for Y[dK]YFIPLG[dK]GEVN[Sta]VAE[dP]K(Chol'ester')-NH2 (also: x 3TFA salt) here?
Answer: Its value is 3400 pM.

Question: Which “IC50, cellular Aβ-lowering assay” value does the source give for YPYFIPL[dA]GGEVN[Sta]VAE[dP]K(Chol'ester')-NH2 (also: x TFA salt) [Tyr-Pro-Tyr-Phe-Ile-Pro-Leu-DAla-Gly-Gly-Glu-Val-Asn-Sta-Val-Ala-Glu-DPro-Lys(Chol'ester')-NH2 x TFA] here?
Answer: The value was 55 pM.

Question: B1 was tested. Which “IC50, cellular Aβ-lowering assay” value did it give?
Answer: The value was 39 pM.

Question: How did the “IC50, cellular Aβ-lowering assay” value turn out when YKYFIPLG[dK]GEVN[Sta]VAE[dP]K(Chol'ester')-NH2 (also: x 3TFA salt) was run?
Answer: The value was 250 pM.

Question: With YPY[dK]IPLG[dK]GEVN[Sta]VAE[dP]K(Chol'ester')-NH2 (also: x 3TFA salt) as the molecule, how does the “IC50, cellular Aβ-lowering assay” value read?
Answer: The value was 6500 pM.

biological target: T1, BACE1 (Homo sapiens, UniProt P56817); assay: Cellular Aβ-lowering assay (Aβ40 ELISA of culture supernatant); format: cell-based; conditions: not given
T1 construct: Human HEK293 cells which are stably transfected with a vector expressing a cDNA of the human APP wt gene (APP695); endogenous in cells; host or cells: HEK293 (human), stably transfected with human APP695 wt
Description: The compounds were investigated in accordance with the test given hereinafter.
Cellular Aβ-Lowering Assay:
Human HEK293 cells which are stably transfected with a vector expressing a cDNA of the human APP wt gene (APP695) were used to assess the potency of the compounds in a cellular assay. The cells were seeded in 96-well microtiter plates in cell culture medium (Iscove, plus 10% (v/v) fetal bovine serum, glutamine, penicillin/streptomycin) to about 80% confluence and the compounds were added at a 10× concentration in 1/10 volume of medium without FCS containing 8% DMSO (final concentration of DMSO was kept at 0.8% v/v). After 18-20 hrs incubation at 37° C. and 5% CO2 in a humidified incubator the culture supernatant was harvested for the determination of Aβ40 concentrations. 96 well ELISA plates (e.g., Nunc MaxiSorb) were coated with monoclonal antibody which specifically recognize the C-terminal end of Aβ40 (Brockhaus et al., NeuroReport 9; 1481-1486; 1998). After blocking of non-specific binding sites with e.g. 1% BSA and washing, the culture supernatants were added in suitable dilutions together with a horseradish peroxidase-coupled Aβ detection antibody (e.g., antibody 4G8, Senetek, Maryland Heights, Mo.) and incubated for 5 to 7 hrs. Subsequently the wells of the microtiter plate were washed extensively with Tris-buffered saline containing 0.05% Tween 20 and the assay was developed with tetramethylbenzidine/H2O2 in citric acid buffer. After stopping the reaction with one volume 1 N H2SO4 the reaction was measured in an ELISA reader at 450 nm wavelength. The concentrations of Aβ in the culture supernatants were calculated from a standard curve obtained with known amounts of pure Aβ peptide.

T1 sequence (P56817 46-501): as the sequence (P56817 46-501 limits assumed) above

Question: With `CC[C@H](C)[C@H](NC(=O)[C@H](Cc1ccccc1)NC(=O)[C@H](Cc1ccc(O)cc1)NC(=O)[C@@H]1CCCN1C(=O)[C@@H](N)Cc1ccc(O)cc1)C(=O)N1CCC[C@H]1C(=O)N[C@@H](CC(C)C)C(=O)NCC(=O)NCC(=O)NCC(=O)N[C@@H](CCC(=O)O)C(=O)N[C@H](C(=O)N[C@@H](CC(N)=O)C(=O)N[C@@H](CC(C)C)[C@@H](O)CC(=O)N[C@H](C(=O)N[C@@H](C)C(=O)N[C@@H](CCC(=O)O)C(=O)N1CCC[C@@H]1C(=O)N[C@@H](CCCCNC(=O)CCC(=O)O[C@H]1CC[C@@]2(C)C(=CC[C@H]3[C@@H]4CC[C@H]([C@H](C)CCCC(C)C)[C@@]4(C)CC[C@@H]32)C1)C(N)=O)C(C)C)C(C)C` [Example 2, Tyr-Pro-Tyr-Phe-Ile-Pro-Leu-Gly-Gly-Gly-Glu-Val-Asn-Sta-Val-Ala-Glu-DPro-Lys(Chol)-NH2] as the molecule, how does the IC50 read?
Answer: The IC50 was 0.027 nM.

same assay, conditions: Aβ40 in supernatant of human HEK293 cells stably transfected with human APP wt (APP695); 18-20 hrs incubation; read-out: IC 50

Question: With `CC[C@H](C)[C@H](NC(=O)[C@H](Cc1ccccc1)NC(=O)[C@H](Cc1ccc(O)cc1)NC(=O)[C@@H]1CCCN1C(=O)[C@@H](N)Cc1ccc(O)cc1)C(=O)N1CCC[C@H]1C(=O)N[C@@H](CC(C)C)C(=O)N[C@@H](CO)C(=O)NCC(=O)NCC(=O)N[C@@H](CCC(=O)O)C(=O)N[C@H](C(=O)N[C@@H](CC(N)=O)C(=O)N[C@@H](CC(C)C)[C@@H](O)CC(=O)N[C@H](C(=O)N[C@@H](C)C(=O)N[C@@H](CCC(=O)O)C(=O)N1CCC[C@@H]1C(=O)N[C@@H](CCCCNC(=O)CCC(=O)O[C@H]1CC[C@@]2(C)C(=CC[C@H]3[C@@H]4CC[C@H]([C@H](C)CCCC(C)C)[C@@]4(C)CC[C@@H]32)C1)C(N)=O)C(C)C)C(C)C` [Example 54, Tyr-Pro-Tyr-Phe-Ile-Pro-Leu-Ser-Gly-Gly-Glu-Val-Asn-Sta-Val-Ala-Glu-DPro-Lys(Chol′ester′)-NH2] (H-YPYFIPLSGGEVN[Sta]VAE[dP]K(Succinyl(4-O-cholesteryl))-NH2) as the molecule, how does the IC50 read?
Answer: The IC50 was 0.052 nM.

Question: With `CC(C)CCC[C@@H](C)[C@H]1CC[C@H]2[C@@H]3CC=C4C[C@@H](OC(=O)CCC(=O)NCCCC[C@H](NC(=O)[C@H]5CCCN5C(=O)[C@H](CCC(=O)O)NC(=O)[C@H](C)NC(=O)[C@@H](NC(=O)C[C@H](O)[C@H](CC(C)C)NC(=O)[C@H](CC(N)=O)NC(=O)[C@@H](NC(=O)[C@H](CCC(=O)O)NC(=O)CCOCCOCCOCCOCCNC(=O)[C@H](CC(C)C)NC(=O)[C@@H]5CCCN5C(=O)[C@H](CCCCN)NC(=O)[C@H](Cc5ccccc5)NC(=O)[C@H](Cc5ccc(O)cc5)NC(=O)[C@@H]5CCCN5C(=O)[C@@H](N)Cc5ccc(O)cc5)C(C)C)C(C)C)C(N)=O)CC[C@]4(C)[C@H]3CC[C@]12C` [Example 34, Tyr-Pro-Tyr-Phe-Lys-Pro-Leu-PEG(4)-Glu-Val-Asn-Sta-Val-Ala-Glu-DPro-Lys(Chol)-NH2] (H-YPYFKPL[PEG4]EVN[Sta]VAE[dP]K(Succinyl(4-O-cholesteryl))-NH2) as the molecule, how does the IC50 read?
Answer: The IC50 was 0.0235 nM.
